Data on two substances can be found in publication PMC3098157.

In one assay the target is FLAG-tagged LEDGF/p75 WT (UniProt O75475).
Assay [1] deals with FLAG-tagged LEDGF/p75 ΔPWWP.
Assay [2] has as its target LEDGF/p75 ΔPWWP (stably expressed in HEK293T-derived cells).
Assay [3] deals with LEDGF/p75 WT (Lens epithelium-derived growth factor/p75) (UniProt O75475).

On to “Myc-eGFP-tagged HIV-1 integrase WT (enzyme)”, for which, in the assay with FLAG-tagged LEDGF/p75 WT, the salt extraction assay, transient coexpression: NaCl needed to extract LEDGF/p75 WT from chromatin with integrase WT (250 mM without integrase) was above 300 mM. The salt extraction assay, transient coexpression: NaCl needed for complete extraction of LEDGF/p75 ΔPWWP from chromatin with integrase WT (150 mM without integrase) in assay [1] is above 200 mM.

For the substance Myc-tagged HIV-1 integrase (enzyme), the salt extraction assay: percent of LEDGF/p75 ΔPWWP extracted from chromatin at 100 mM and 150 mM NaCl in cells co-expressing HIV-1 integrase (30% and 70% without integrase) in assay [2] is below 2%. Also, the salt extraction assay: percent of LEDGF/p75 WT extracted from chromatin at NaCl above 200 mM in cells co-expressing HIV-1 integrase (around 70% without integrase) in assay [3] was below 1%.
